Tests used:
GPNMB = target: T1, GPNMB (Homo sapiens, UniProt Q14956); assay: ELISA of hybridoma supernatants for binding to GPNMB
T1 construct: made in house; host or cells: HEK 293
T1 sequence (Q14956 23-492): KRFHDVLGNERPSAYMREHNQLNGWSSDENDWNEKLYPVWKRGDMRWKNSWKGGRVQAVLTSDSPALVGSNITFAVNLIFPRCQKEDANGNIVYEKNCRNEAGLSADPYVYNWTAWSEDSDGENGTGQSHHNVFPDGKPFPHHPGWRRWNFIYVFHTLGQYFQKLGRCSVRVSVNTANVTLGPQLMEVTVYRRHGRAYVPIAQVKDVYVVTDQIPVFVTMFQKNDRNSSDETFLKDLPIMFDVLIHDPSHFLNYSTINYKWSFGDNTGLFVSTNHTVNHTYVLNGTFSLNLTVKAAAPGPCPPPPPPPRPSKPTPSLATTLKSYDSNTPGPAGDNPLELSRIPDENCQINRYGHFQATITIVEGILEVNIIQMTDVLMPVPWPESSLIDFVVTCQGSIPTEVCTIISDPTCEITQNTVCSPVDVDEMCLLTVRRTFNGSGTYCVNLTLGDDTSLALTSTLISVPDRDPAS
Procedure: After 14 days of culture, hybridoma supernatants were screened for GPNMB specific monoclonal antibodies. In the Primary screen, the ELISA plates (Fisher, Cat. No. 12-565-136) were coated with 50 μL/well of GPNMB (1 μg/mL) in Coating Buffer (0.1 M Carbonate Buffer, pH 9.6, NaHCO3 8.4 g/L), then incubated at 4° C. overnight. After incubation, the plates were washed with Washing Buffer (0.05% Tween 20 in PBS) three times. 200 μL/well Blocking Buffer (0.5% BSA, 0.1% Tween 20, 0.01% Thimerosal in 1×PBS) were added and the plates were incubated at room temperature for 1 h. After incubation, the plates were washed with Washing Buffer three times. Aliquots (50 μL/well) of hybridoma supernatants and positive and negative controls were added, and the plates were incubated at room temperature for 2 h. The positive control used throughout was serum from the relevant GPNMB immunized XenoMouse® mouse and the negative control was serum from the KLH-immunized relevant strain of XenoMouse® mouse. After incubation, the plates were washed three times with Washing Buffer. 100 μL/well of detection antibody goat anti-huIgGfc-HRP (Caltag, Cat. No. H10507, using concentration was 1:2000 dilution) was added and the plates were incubated at room temperature for 1 hour. After incubation, the plates were washed three times with Washing Buffer. 100 μl/well of TMB (BioFX Lab. Cat. No. TMSK-0100-01) was added, and the plates were allowed to develop for about 10 minutes (until negative control wells barely started to show color). 50 μl/well stop solution (TMB Stop Solution (BioFX Lab. Cat. No. STPR-0100-01) was then added and the plates were read on an ELISA plate reader at a wavelength of 450 nm.
Hybridoma supernatants were screened for binding to GPNMB by ELISA as described above in Example 2.

melanoma cell lines = assay: Clonogenic assay with 1.15.1-AE; assay type: cell-based, human; details: various concentrations
Procedure: Melanoma cell lines were plated onto flat bottom 96-well tissue culture plates (Becton Dickinson, Franklin Lakes, N.J., USA). On day 2 or when cells reach ˜25% confluency, various concentrations of unconjugated and Auristatin E-conjugated 1.15.1 were added to cells. MAb 2.6.2-AE was also used as a conjugated isotype control in this study. On day 5, the cells were trypsinized, transferred to 6-well tissue culture plates and incubated at 37° C. Plates were examined daily. On days 8-10, all plates were Giemsa stained and colonies on the plates were counted.

[1] = system: lymphoma or leukemia cell lines; assay: Clonogenic assay with 1.15.1-AE (methylcellulose); assay type: cell-based; details: various concentrations
Procedure: Lymphoma or leukemia cell lines were mixed with methylcellulose base media (R&D Systems, USA) and in various concentrations of unconjugated and Auristatin E-conjugated 1.15.1 antibody before plating onto 6-well tissue culture plates (Becton Dickinson, Franklin Lakes, N.J., USA). […] Plates were incubated at 37° C. and examined daily. On days 14-18, colonies on the plates were counted.

SK-Mel-2 cells [2] = assay: Apoptosis analysis (Annexin V-FITC / propidium iodide); assay type: cell-based, human; details: SK-Mel-2, 48 hour, 1000 ng/mL
Procedure: (§1) Briefly, cells were pulsed at the indicated times with 30 μM of bromodeoxyuridine (BrdU, Sigma) for 30 min, harvested, fixed and permeabilized in methanol. Nascent DNA synthesis was detected by anti-bromodeoxyuridine-FITC (BD Biosciences, San Jose, Calif.) staining. Total DNA content was detected using propidium iodide (PI, Sigma). For apoptosis analysis, cells were treated as above and labeled with Annexin V-FITC followed by propidium iodide exclusion using the Annexin V-FITC Apoptosis Detection kit I (BD PharMingen, San Diego, Calif.) according to the manufacturer's protocols. Flow cytometry (as described in the previous Example) was used to assay both cell cycle and apoptosis studies.
(§2) To investigate this possibility, analysis of apoptosis using Annexin-V surface binding and loss of propidium iodide (PI) exclusion was performed.

TK-10 cells = assay: as above; assay type: cell-based, human; details: TK-10, 48 hour, 1000 ng/mL
Procedure: as §1, §2

SK-Mel-2 cells [3] = assay: Flow cytometry of CR011 binding to cell surface CG56972/GPNMB; set-up: species or system human; details: SK-MEL-2, positive control
Procedure: (§3) Flow Cytometry: Quantitative analysis of GPNMB expression on the cell surface of cell lines was determined by flow cytometry. […] Cells were fixed in 1% paraformaldehyde/PBS and examined on a Becton Dickinson FACSCalibur flow cytometer. Data analysis was performed with Becton Dickinson Cell Quest software version 3.3 and the geometric mean fluorescence intensity ratio (GMR) was determined for each cell type.
as §3, with “CG56972” for “GPNMB”, “the” for “the cell”, “cytometry (FACS).” for “cytometry.”

[4] = system: CG56972-expressing cancer cell lines; assay: Growth of CG56972-expressing cancer cell lines with naked CR011 or CR011 plus saporin-conjugated secondary antibody; assay type: cell-based; details: for effect on CG56972 expressing cells / growth, naked antibody: used directly
From the text: Fully human monoclonal antibodies (mAb)-IgG2 to CG56972/GPNMB, an antigen predominantly found on the surface of melanoma and brain tumor cells, were generated. The naked CR0111gG2 mAb (mAb 1.15) had no effect on CG56972 expressing cells either in vitro or in vivo. Thus we examined whether isotype switching from an IgG2 to an IgG1 might enable the mAb to kill human melanoma cells through ADCC effector functions.

B1: Mab1.15.1 (protein, listed as Homo sapiens)
chain: QVQLQESGPGLVKPSQTLSLTCTVSGGSISSFNYYWSWIRHHPGKGLEWIGYIYYSGSTYSNPSLKSRVTISVDTSKNQFSLTLSSVTAADTAVYYCARGYNWNYFDYWGQGTLVTVSSA
Avg OD (GPNMB; 12.3 ng/mL): 0.168 | Avg OD (GPNMB; 37 ng/mL): 0.381 | Avg OD (GPNMB; 111 ng/mL): 0.701 | Avg OD (GPNMB; 333 ng/mL): 0.902 | Avg OD (GPNMB; 1 μg/mL): 1.051 | Avg OD (GPNMB; 3 μg/mL): 1.159 | effect on growth of all the melanoma cell lines tested (melanoma cell lines): no effect on growth | effect on growth of all antigen positive hematopoietic cell lines [1]: no effect on growth | % AnnV+/PI+ UR (SK-Mel-2 cells [2]): 0.45% | % AnnV+/PI− LR (SK-Mel-2 cells [2]): 4.74% | % AnnV−/PI+ UL (SK-Mel-2 cells [2]): 0.36% | % AnnV+/PI+ UR (TK-10 cells): 0.34% | % AnnV+/PI− LR (TK-10 cells): 0.55% | % AnnV−/PI+ UL (TK-10 cells): 0.83% | cell surface staining (SK-Mel-2 cells [3]): strong cell surface staining | growth of CG56972-expressing cancer cells ([4]; combined with saporin-conjugated secondary antibody): could specifically inhibit the growth | effect on CG56972 expressing cells / growth, naked antibody [4]: no effect | effect on CG56972 expressing cells / growth, naked antibody ([4]; listed as CR011): did not inhibit the growth
